The text below walks through data of patent US20100234450, “Molecular targeting agents” (published 2010).

A word on the Kd: it is the equilibrium constant for the complex coming apart.

Data set [1] has as its target T1, PSMA (prostate-specific membrane antigen) (Homo sapiens, UniProt Q04609 Q04609:1-750). Briefly: cell binding to PSMA-positive 22Rv1(1.7) cells. The conditions noted are these: tags: none, endogenous on 22Rv1(1.7) and LNCaP prostate cancer cells, chain copies: 2.
Data set [2] addresses T1, PSMA (prostate-specific membrane …). The experiment in a line: cell binding to PSMA-positive 22Rv1(1.7) cells; Bmax much lower on PSMA-negative 22Rv1(wmr) cells. The settings on record: tags: none; endogenous on 22Rv1(1.7) and LNCaP prostate cancer cells; chain copies: 2; label: 111In.

T1 sequence (Q04609 whole entry, one chain of several): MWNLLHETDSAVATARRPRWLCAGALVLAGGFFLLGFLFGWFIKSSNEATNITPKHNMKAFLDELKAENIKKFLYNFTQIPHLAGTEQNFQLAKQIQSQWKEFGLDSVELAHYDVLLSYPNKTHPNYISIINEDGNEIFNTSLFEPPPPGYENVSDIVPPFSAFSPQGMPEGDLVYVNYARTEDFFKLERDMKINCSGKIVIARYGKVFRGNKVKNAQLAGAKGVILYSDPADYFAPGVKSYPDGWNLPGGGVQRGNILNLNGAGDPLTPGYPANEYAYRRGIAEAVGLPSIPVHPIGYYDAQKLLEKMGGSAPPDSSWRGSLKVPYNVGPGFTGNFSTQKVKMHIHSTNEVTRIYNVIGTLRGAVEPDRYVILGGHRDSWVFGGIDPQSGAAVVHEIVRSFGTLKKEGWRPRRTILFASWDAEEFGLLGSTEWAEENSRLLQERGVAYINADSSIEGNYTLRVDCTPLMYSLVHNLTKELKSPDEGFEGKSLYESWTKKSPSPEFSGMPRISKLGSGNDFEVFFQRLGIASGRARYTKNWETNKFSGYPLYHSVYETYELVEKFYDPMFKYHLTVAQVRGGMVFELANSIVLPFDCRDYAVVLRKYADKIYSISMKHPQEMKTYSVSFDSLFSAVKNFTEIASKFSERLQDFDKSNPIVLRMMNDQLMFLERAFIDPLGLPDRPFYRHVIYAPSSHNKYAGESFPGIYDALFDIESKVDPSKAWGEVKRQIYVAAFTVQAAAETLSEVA

B1: A10-3.2 (32P) (ssRNA)
RNA: GGGAGGACGAUGCGGAUCAGCCAUGUUUACGUCACUCCU
Molecule B1 came in with an equilibrium dissociation constant (Kd) in data set [1] (label: 5'-32P) of 106 nM.

B2: 111In-DOTA-A10-3.2 (ssRNA)
RNA: GGGAGGACGAUGCGGAUCAGCCAUGUUUACGUCACUCCU
modifications: 5'-DOTA chelator via linker
In the case of B2, the Kd in data set [2] was found to be 119 nM.

B3: 64Cu-NOTA-A10-3.2 (ssRNA)
RNA: GGGAGGACGAUGCGGAUCAGCCAUGUUUACGUCACUCCU
modifications: 5'-NOTA chelator via linker
In data set [1] (label: 64Cu), B3 registered a Kd of 131 nM.
